Article PMC11434109, “VIK‐Mediated Auxin Signaling Regulates Lateral Root Development in Arabidopsis” (Advanced Science, 2024)

Target: T1, His-VIK (Arabidopsis, UniProt Q9XI87 1-438)
T1 construct: VIK, Arabidopsis, AT1G14000, N-terminal 6 x histidine tag and a full-length VIK protein; also called recombinant His-VIK; source: E. coli BL21 (DE3), purified (Ni NTA beads); not shown: His6, N-terminal, kept
T1 sequence (looked up): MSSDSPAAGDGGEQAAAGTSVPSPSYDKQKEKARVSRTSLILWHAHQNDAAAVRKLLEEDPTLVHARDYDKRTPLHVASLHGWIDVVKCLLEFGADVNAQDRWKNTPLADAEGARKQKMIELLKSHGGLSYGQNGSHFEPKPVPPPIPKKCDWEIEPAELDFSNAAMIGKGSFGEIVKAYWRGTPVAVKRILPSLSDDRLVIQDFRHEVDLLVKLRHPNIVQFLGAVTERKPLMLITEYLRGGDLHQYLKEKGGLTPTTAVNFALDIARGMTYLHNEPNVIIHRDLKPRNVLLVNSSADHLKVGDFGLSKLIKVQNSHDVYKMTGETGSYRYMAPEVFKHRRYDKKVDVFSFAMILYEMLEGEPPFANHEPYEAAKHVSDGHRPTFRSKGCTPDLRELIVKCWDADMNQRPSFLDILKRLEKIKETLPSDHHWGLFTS
Assay: pull-down; GST-LBD18 immobilised on Glutathione Beads, incubated with His-VIK or His-MBP at 4 °C for 4 h; washed five times with 1 x PBS; blot with anti-His and anti-GST
Settings: both partners purified

- binding result: binds
B1: GST-LBD18 (natural protein, Arabidopsis, UniProt O22131 1-262, looked up)
chain: MSGGGNTITAVGGGGGGCGGGGSSGGGGSSGGGGGGPCGACKFLRRKCVPGCIFAPYFDSEQGSAYFAAVHKVFGASNVSKLLLHIPVHRRSDAVVTICYEAQARIRDPIYGCVAHIFALQQQVVNLQAEVSYLQAHLASLELPQPQTRPQPMPQPQPLFFTPPPPLAITDLPASVSPLPSTYDLASIFDQTTSSSAWATQQRRFIDPRHQYGVSSSSSSVAVGLGGENSHDLQALAHELLHRQGSPPPAATDHSPSRTMSR
notes: the words full length are not used for this construct; also called recombinant GST-LBD18; source: E. coli BL21 (DE3), purified (Glutathione Beads); not shown: GST, N-terminal, kept
